Tested on: Ovalbumin-specific OTII T cells
Assay: Adoptive transfer of ovalbumin-specific OTII T cells, Foxp3 expression (Example 5)
Assay type: in vivo
Settings: mice with adoptively transferred OTII T cells; starting from ~3%
Method: However, expansion of antigen-specific Treg can be more desirable than expansion of total Treg. The ability of ImmTOR plus antigen combined with IL-2 mutein to induce and/or expand antigen-specific Treg was evaluated. Ovalbumin-specific OTII T cells were adoptively transferred into mice prior to treatment with ovalbumin and ImmTOR and/or IL-2 mutein.

B1: ovalbumin (protein, UniProt P01012 2-386, looked up)
Ovalbumin: GSIGAASMEFCFDVFKELKVHHANENIFYCPIAIMSALAMVYLGAKDSTRTQINKVVRFDKLPGFGDSIEAQCGTSVNVHSSLRDILNQITKPNDVYSFSLASRLYAEERYPILPEYLQCVKELYRGGLEPINFQTAADQARELINSWVESQTNGIIRNVLQPSSVDSQTAMVLVNAIVFKGLWEKAFKDEDTQAMPFRVTEQESKPVQMMYQIGLFRVASMASEKMKILELPFASGTMSMLVLLPDEVSGLEQLESIINFEKLTEWTSSNVMEERKIKVYLPRMKMEEKYNLTSVLMAMGITDVFSSSANLSGISSAESLKISQAVHAAHAEINEAGREVVGSAEAGVDAASVSEEFRADHPFLFCIKHIATNAVLFFGRCVSP
percentage of Foxp3+ OTII cells: ~6%

— US20220323607A1, “SYNTHETIC NANOCARRIERS COMPRISING AN IMMUNOSUPPRESSANT IN COMBINATION WITH HIGH AFFINITY IL-2 RECEPTOR AGONISTS TO ENHANCE IMMUNE TOLERANCE” (Selecta Biosciences, Inc., priority 2021, published 2022)
